Values of other authors as cited in PMC9709720, “An orally available small molecule that targets soluble TNF to deliver anti-TNF biologic-like efficacy in rheumatoid arthritis” (Frontiers in Pharmacology, 2022).

Tested on: free soluble TNF in human synovial tissue
Set-up: method as in Tani et al. (2013)
Details: one third of reported steady state concentration, synovial fluid; ref Tani et al. (2013)

infliximab
Css^f used in model: 17 nM

etanercept
Css^f used in model: 2.2 nM
